The assay has as its target EGFR (UniProt P00533 25-1210). In words: SPR; printed as pKD […].

B1: aEGFR-R1-1 (antibody, V domains shown)
VH: EVKLQQSGDETMRPGASVRMSCKAYGYTFTDYSMHWIRQRPGQGLEWIGIIIPLIDTTRYNQKFKGKATLTADTSSDTAYMELSRLTFEDSAVYYCARSYDPSGDDWFAYWGQGTLVTVSS
VL: DTVLTQSPALSVSPGERVDISCRASESVSTLLHWYQQKPGQQPTLLISLASSLESGVPARFSGSGSGTDFTLTIDPVEADDTAIYYCQESWNEPYAFGAGTKLELK
B1 returned a Kd of 0.126 nM.

The values are drawn from paper doi:10.1101/2025.01.28.635353 (2025).
